± gives the standard deviation of the averaged measurements.
Tested on: ATP
Assay: switch fluorescence ratio, 500 uM ATP over buffer (Cy3 cluster intensity, sum of 5 cycles each) (fold (ratio)); higher = stronger signal-on switching upon ATP binding; sequences stand for … in TCGTCGGCAGCGTCAGATGTGTATAAGAGACAGTTTTTTTTTTTTTTTTTTTTTTTTT…TC
Conditions: aptamer strand: ATP DNA aptamer (quencher-CACCTGGGGGAGTATTGCGGAGGAAGG + anchor), 100 nM annealed; ATP concentration: 500 uM
Summary of the method: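 Imaging in selection buffer was followed by imaging after 15 min with 500 uM ATP at 22 °C, for Cy3-labelled switching-strand clusters annealed to 100 nM quencher-labelled ATP aptamer on a modified Illumina MiSeq flow-cell. Five of these buffer/ATP cycles ran, separated by NaOH stripping and re-annealing. The fluorescence ratio per cluster is summed target-cycle over summed buffer-cycle Cy3 intensity, averaged per switch-domain sequence; clusters outside 100-1000 RFU were removed.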
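Further: ATP exposure 15 min at 22 °C before imaging.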

Sequence: GCGGGGGGGA
- switch fluorescence ratio: 1.01 ± 0.038

Sequence: GGGTTTGTAG
- switch fluorescence ratio: 1.01 ± 0.056

Sequence: CCTGGTCGAC
- switch fluorescence ratio: 0.986 ± 0.015

Sequence: CGTAAGGCAG
- switch fluorescence ratio: 1 ± 0.038

Sequence: CGGTGTTGCC
- switch fluorescence ratio: 0.971 ± 0.011

Sequence: TACTTGTGTG
- switch fluorescence ratio: 0.988 ± 0.011

Sequence: CCAGA
- switch fluorescence ratio: 1.022 ± 0.006

Sequence: AGTGTGATAG
- switch fluorescence ratio: 0.995 ± 0.034

Sequence: TTTAGGTATT
- switch fluorescence ratio: 0.9598 ± 0.0042

Sequence: GGGGAACAGA
- switch fluorescence ratio: 1.02 ± 0.026

Sequence: TTTTTTAGCA
- switch fluorescence ratio: 1.02 ± 0.023

Sequence: AGTTAATTGA
- switch fluorescence ratio: 0.9704 ± 0.0093

Sequence: TTATTGATCC
- switch fluorescence ratio: 0.9978 ± 0.0019

Sequence: AAAATTATTT
- switch fluorescence ratio: 1.01 ± 0.021

Sequence: GGGGTTGAAG
- switch fluorescence ratio: 0.979 ± 0.01

Sequence: TGGCTGTACA
- switch fluorescence ratio: 1.01 ± 0.025

Sequence: CGGTTCGGAT
- switch fluorescence ratio: 0.989 ± 0.017

Sequence: TGGGGATCAC
- switch fluorescence ratio: 1.01 ± 0.071

Sequence: TTTTCATTGG
- switch fluorescence ratio: 0.985 ± 0.026

Sequence: TTTTTACGGG
- switch fluorescence ratio: 1.02 ± 0.043

Sequence: AGATCGAGTT
- switch fluorescence ratio: 0.99 ± 0.041

Sequence: GGAATGAAGT
- switch fluorescence ratio: 1.07 ± 0.049

Sequence: CAAATATACT
- switch fluorescence ratio: 1.14 ± 0.13

Sequence: AAGCAACAGT
- switch fluorescence ratio: 1.094 ± 0.0035

Sequence: GATCAGGGGT
- switch fluorescence ratio: 1.06 ± 0.044

Sequence: AACTGTTCTT
- switch fluorescence ratio: 1.01 ± 0.011

Sequence: ATGTATATGC
- switch fluorescence ratio: 1.08 ± 0.069

Sequence: AGTGATATTT
- switch fluorescence ratio: 1.01 ± 0.042

Sequence: TTTTTAACGG
- switch fluorescence ratio: 1.01 ± 0.024

Sequence: GGAGGTGTGT
- switch fluorescence ratio: 1.02 ± 0.021

Sequence: GTTTAAACTT
- switch fluorescence ratio: 0.996 ± 0.039

Sequence: GACCAAATTT
- switch fluorescence ratio: 1.02 ± 0.064

Sequence: AGGGTGTTTT
- switch fluorescence ratio: 1.01 ± 0.028

Sequence: GTACTGTGTG
- switch fluorescence ratio: 1.001 ± 0.0037

Sequence: TGGGGGTGAC
- switch fluorescence ratio: 1.04 ± 0.038

Sequence: CGACTGTTTT
- switch fluorescence ratio: 1.02 ± 0.015

Sequence: CGGGGTGAAA
- switch fluorescence ratio: 0.983 ± 0.029

Sequence: AAGTTTATTT
- switch fluorescence ratio: 0.973 ± 0.051

Sequence: GTGTCAGCGG
- switch fluorescence ratio: 0.9762 ± 0.0088

Sequence: GGGGGAGCTT
- switch fluorescence ratio: 0.9828 ± 0.0078

Sequence: AAGGGGCCCT
- switch fluorescence ratio: 1.0195 ± 0.00095

Sequence: ATGAGCGGCG
- switch fluorescence ratio: 0.9917 ± 0.0012

Sequence: TCGGTGACAG
- switch fluorescence ratio: 1.01 ± 0.018

Sequence: CAGGTAGGGT
- switch fluorescence ratio: 1.01 ± 0.052

Sequence: TCTCATCGGG
- switch fluorescence ratio: 1.014 ± 0.0037

Sequence: TAAACCGGTT
- switch fluorescence ratio: 0.984 ± 0.027

Sequence: TGTTTTGTAG
- switch fluorescence ratio: 1 ± 0.015

Sequence: TGGTTTGATT
- switch fluorescence ratio: 1.003 ± 0.0064

Sequence: CGGGCCACTT
- switch fluorescence ratio: 1.008 ± 0.0076

Sequence: GGGAGGCCAT
- switch fluorescence ratio: 0.9683 ± 0.0076

Sequence: AAAATGAGTG
- switch fluorescence ratio: 0.985 ± 0.021

Sequence: GGCTTTTAAC
- switch fluorescence ratio: 0.9827 ± 0.0013

Sequence: CCCCAGTCAA
- switch fluorescence ratio: 3.3 ± 0.43

Sequence: ACTTGGTCGA
- switch fluorescence ratio: 0.9902 ± 0.0095

Sequence: TATGCAGTCA
- switch fluorescence ratio: 1.01 ± 0.029

Sequence: GGGTATGTGG
- switch fluorescence ratio: 0.972 ± 0.032

Sequence: ATCAGGAAAT
- switch fluorescence ratio: 1.01 ± 0.017

Sequence: TGCGGAGGGC
- switch fluorescence ratio: 1.01 ± 0.043

Sequence: CTCTTGAATA
- switch fluorescence ratio: 0.9957 ± 0.0015

Sequence: TTCAAGTGAA
- switch fluorescence ratio: 0.979 ± 0.012

Sequence: TGCACGATTG
- switch fluorescence ratio: 1.03 ± 0.03

Sequence: TGGGCGGTCT
- switch fluorescence ratio: 1.03 ± 0.039

Sequence: GTTTTGAAAA
- switch fluorescence ratio: 0.949 ± 0.019

Sequence: TTGGAATAGA
- switch fluorescence ratio: 0.999 ± 0.05

Sequence: GAAATCGGTG
- switch fluorescence ratio: 0.995 ± 0.036

Sequence: TCATCAAGGG
- switch fluorescence ratio: 0.965 ± 0.012

Sequence: TAGTAATGGT
- switch fluorescence ratio: 1.032 ± 0.0084

Sequence: AATAGGGTG
- switch fluorescence ratio: 1.08 ± 0.07

Sequence: GGCTGTACAC
- switch fluorescence ratio: 1.0831 ± 0.001

Sequence: GCCCGGCCAG
- switch fluorescence ratio: 0.9693 ± 0.0062

Sequence: GGAATTAAAT
- switch fluorescence ratio: 0.985 ± 0.027

Sequence: ATGCAGTATT
- switch fluorescence ratio: 1.03 ± 0.025

Sequence: AGTGGGGTAC
- switch fluorescence ratio: 1.03 ± 0.032

Sequence: TTTGGATACA
- switch fluorescence ratio: 0.9739 ± 0.0012

Sequence: TCGAGTATGT
- switch fluorescence ratio: 0.983 ± 0.012

Sequence: TAAGTGGGCC
- switch fluorescence ratio: 1 ± 0.036

Sequence: TGCCTTATTA
- switch fluorescence ratio: 1.035 ± 0.0067

Sequence: CGGCGATCGC
- switch fluorescence ratio: 1.04 ± 0.011

Sequence: GGTTATGGG
- switch fluorescence ratio: 0.993 ± 0.038

Sequence: TAAAGGGCTT
- switch fluorescence ratio: 1.02 ± 0.018

Sequence: ACGGGCATCG
- switch fluorescence ratio: 1.02 ± 0.032

Sequence: TTAATGCCGT
- switch fluorescence ratio: 1.05 ± 0.076

Sequence: GGGGGTTGGC
- switch fluorescence ratio: 0.966 ± 0.047

Sequence: AATTTTGGTT
- switch fluorescence ratio: 0.99 ± 0.017

Sequence: TGGGGTAAGG
- switch fluorescence ratio: 1.01 ± 0.022

Sequence: GACTATTAGC
- switch fluorescence ratio: 0.984 ± 0.028

Sequence: CTCGTCAATT
- switch fluorescence ratio: 1.52 ± 0.24

Sequence: TATGGTGTGC
- switch fluorescence ratio: 1.02 ± 0.021

Sequence: AGTGGTGTTG
- switch fluorescence ratio: 0.9577 ± 0.0092

Sequence: GGCATGTTTG
- switch fluorescence ratio: 0.9917 ± 0.0027

Sequence: ATTGTGCCGA
- switch fluorescence ratio: 0.972 ± 0.011

Sequence: TAATAAATGT
- switch fluorescence ratio: 0.9941 ± 0.0044

Sequence: TTTTAGGTGA
- switch fluorescence ratio: 1.07 ± 0.025

Sequence: GTTTCTTAGC
- switch fluorescence ratio: 0.998 ± 0.081

Sequence: GATGAGGATG
- switch fluorescence ratio: 0.987 ± 0.014

Sequence: ATGAAGGGGG
- switch fluorescence ratio: 1.03 ± 0.042

Sequence: AGGCTTGAGG
- switch fluorescence ratio: 0.9904 ± 0.0044

Sequence: GTTTCGTGAG
- switch fluorescence ratio: 0.994 ± 0.054

Sequence: AGTTGTAAAG
- switch fluorescence ratio: 0.985 ± 0.018

Sequence: TTTATTGTTT
- switch fluorescence ratio: 1 ± 0.011

Sequence: TGGGAGTCTG
- switch fluorescence ratio: 0.9898 ± 0.0047

Sequence: AAAGGTAATC
- switch fluorescence ratio: 1.01 ± 0.023

Sequence: TTGTCTGTCC
- switch fluorescence ratio: 0.98 ± 0.018

Sequence: GATGGGATTG
- switch fluorescence ratio: 0.966 ± 0.037

Sequence: CAGGATCATC
- switch fluorescence ratio: 0.9884 ± 0.0035

Sequence: AACTCTGTTA
- switch fluorescence ratio: 0.982 ± 0.03

Sequence: GGATGGGGAA
- switch fluorescence ratio: 0.998 ± 0.024

Sequence: TTGGAATTTA
- switch fluorescence ratio: 1 ± 0.016

Sequence: TTAGGCAGGG
- switch fluorescence ratio: 1 ± 0.016

Sequence: CCAAGTGAC
- switch fluorescence ratio: 1.26 ± 0.028

Sequence: AGACTAGGCT
- switch fluorescence ratio: 1.02 ± 0.018

Sequence: TAGGAAGGTT
- switch fluorescence ratio: 0.9879 ± 0.0036

Sequence: GAGAAAGGGG
- switch fluorescence ratio: 1.06 ± 0.14

Sequence: CTAAAACTTG
- switch fluorescence ratio: 1.14 ± 0.13

Sequence: GTAATGGGGT
- switch fluorescence ratio: 0.966 ± 0.029

Sequence: TATGGGGGA
- switch fluorescence ratio: 1.01 ± 0.069

Sequence: ACACTCATGG
- switch fluorescence ratio: 1.03 ± 0.068

Sequence: GAGCATTCCG
- switch fluorescence ratio: 1.003 ± 0.0051

Sequence: CAGATTTGGG
- switch fluorescence ratio: 1.01 ± 0.035

Sequence: TGGGGGGGGT
- switch fluorescence ratio: 1.02 ± 0.18

Sequence: ATTATGTACT
- switch fluorescence ratio: 1.05 ± 0.022

Sequence: GTTGCAGCCT
- switch fluorescence ratio: 0.981 ± 0.018

Sequence: GAGGTGAAGA
- switch fluorescence ratio: 0.979 ± 0.046

Sequence: TAAAGTGCAT
- switch fluorescence ratio: 1.036 ± 0.0066

Sequence: CCAGGTATAA
- switch fluorescence ratio: 1.06 ± 0.041

Sequence: TTTCGAACGG
- switch fluorescence ratio: 1.03 ± 0.028

Sequence: ATAGGAGCAG
- switch fluorescence ratio: 1.01 ± 0.048

Sequence: TCGTGCTTGG
- switch fluorescence ratio: 1 ± 0.029

Sequence: CAGTAGGGGG
- switch fluorescence ratio: 0.977 ± 0.068

Sequence: TCACTGTTTC
- switch fluorescence ratio: 1.011 ± 0.0076

Sequence: GAGGGGAGCT
- switch fluorescence ratio: 1.01 ± 0.045

Sequence: GCTGATAACG
- switch fluorescence ratio: 1.01 ± 0.035

Sequence: GGGGAGAATA
- switch fluorescence ratio: 1.01 ± 0.026

Sequence: GGTTGAGGGC
- switch fluorescence ratio: 1 ± 0.02

Sequence: GTTGGTGTAT
- switch fluorescence ratio: 0.9913 ± 0.009

Sequence: TGCGTTGGGG
- switch fluorescence ratio: 0.981 ± 0.019

Sequence: ATTAGGAGAT
- switch fluorescence ratio: 0.9964 ± 0.0063

Sequence: TGAGCGGTTG
- switch fluorescence ratio: 1 ± 0.018

Sequence: CAATAGTCAG
- switch fluorescence ratio: 1.04 ± 0.015

Sequence: CAGGACCCGT
- switch fluorescence ratio: 0.9965 ± 0.0019

Sequence: GGATGGGGCA
- switch fluorescence ratio: 1 ± 0.023

Sequence: TCAGTTGTTG
- switch fluorescence ratio: 1 ± 0.045

Sequence: CAGGACTCCG
- switch fluorescence ratio: 0.98 ± 0.046

Sequence: TATATTGCTA
- switch fluorescence ratio: 1.01 ± 0.026

Sequence: ACGCCGGGGT
- switch fluorescence ratio: 1.3 ± 0.51

Sequence: CTTAGTAGTT
- switch fluorescence ratio: 1.01 ± 0.015

Sequence: GGGTCCGCGG
- switch fluorescence ratio: 1.04 ± 0.011

Sequence: TGGGTAAGGT
- switch fluorescence ratio: 0.993 ± 0.028

Sequence: TAAGGCGGGG
- switch fluorescence ratio: 0.993 ± 0.042

Sequence: CCAACATGGG
- switch fluorescence ratio: 1.03 ± 0.02

Sequence: TTTTAATACT
- switch fluorescence ratio: 1.04 ± 0.066

Sequence: AGAGTTTCTT
- switch fluorescence ratio: 0.981 ± 0.038

Sequence: GGGTCGGACG
- switch fluorescence ratio: 1.028 ± 0.0088

Sequence: ATTAGACGGA
- switch fluorescence ratio: 1.058 ± 0.0045

Sequence: GAAACTGCTG
- switch fluorescence ratio: 1.01 ± 0.029

Sequence: TTTCCGGGGG
- switch fluorescence ratio: 0.996 ± 0.022

Sequence: AGCAACCCCT
- switch fluorescence ratio: 1.81 ± 0.022

— the supplement of paper PMC10126150
